Where two headings read alike, the source gives them in different places.
Tests used:
Experiment in all cases: other fluorescence titration
[1] = target: T1, N-domain fragment of calmodulin (CaMN, residues 1-75) (paramecium, UniProt P07463 2-76)
[2] = target: T2, Full-length, wild-type calmodulin (paramecium sequence) (paramecium, UniProt P07463 1-149)
[3] = target: T3, C-domain fragment of calmodulin (CaMC, residues 76-148) (paramecium, UniProt P07463 77-149)
[4] = target: T1, N-domain fragment of calmodulin (CaMN, …); remark: listed apart in the source
[5] = target: T2, Full-length, wild-type calmodulin …; remark: listed apart in the source
[6] = target: T3, C-domain fragment of calmodulin (CaMC, …); remark: listed apart in the source

Kd [1]: > 100 µM
Kd [2]: 0.0032 µM
Kd [3]: 0.0116 µM
Kd [4]: > 100 µM
Kd [5]: 0.085 µM
Kd [6]: 0.386 µM
Binder: KRKQEEVSAIVIQRAYRRYLLKQKVKK (domain or fragment) [NaV1.2 IQ biosensor (rat NaV1.2 residues 1901-1927 flanked by YFP and CFP)]

From PMC5503752 (Biophysical chemistry, 2017)
